Experimental data taken from the supplement of paper PMC10567573.

B1: BTBD1 (parent)
chain: YGSIHGPTDYQVNIQIIEYEKKQT

Variants of: B1
Assay: protein stability index of a GFP-peptide fusion (GPS, HEK-293T) (PSI 1-6); higher = more stable
Conditions: c terminus: a fixed tail appended
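Also: lentivirally expressed fusions sorted by FACS into six bins by GFP to DsRed ratio, PSI derived from sequencing read proportions per bin multiplied by bin number.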

Protein stability index of substitutions, site by site:
V12: E 4.08 | K 3.44 | C 2.77 | T 3.72 | L 3.28 | R 3.66 | S 3.98 | W 2.32 | I 2.72 | A 3.6 | P 2.95 | Y 2.87 | M 2.93 | F 2.71 | G 3.52 | N 4.15 | Q 4.19 | D 4.04 | H 4.09
N13: L 2.22 | W 1.85 | F 1.39 | M 2.74 | V 1.87 | P 3.23 | E 2.79 | Y 2.19 | D 2.59 | Q 2.69 | C 1.7 | H 2.48 | S 2.15 | A 2.4 | I 1.83 | K 2.57 | R 2 | G 3.34 | T 1.82
Q15: D 3.06 | P 3.08 | W 4.17 | K 2.56 | L 2.09 | C 1.43 | H 2.11 | N 2.62 | A 1.96 | G 2.47 | S 2.57 | I 2.74 | R 2.67 | M 1.96 | V 1.6 | F 2.4 | E 2.66 | Y 1.37 | T 1.81
D9: Y 2.08 | A 3.12 | K 1.82 | T 2.42 | N 1.98 | H 1.63 | Q 2.18 | S 1.65 | I 4.42 | R 2.65 | E 1.95 | G 1.75 | L 3.37 | M 2.23 | V 2.24 | C 1.94 | P 2.44
P7: M 2.31 | E 3.33 | C 2 | V 2.63 | G 2.87 | T 2.73 | Y 1.75 | L 2.21 | R 1.75 | H 2.65 | N 2.84 | S 2.76 | Q 2.65 | A 2.6 | I 2.44 | F 2.47 | D 3.29 | W 4.06 | K 2.49
H5: G 3.06 | A 3.31 | E 3.71 | I 2.67 | F 1.99 | T 2.52 | N 2.13 | Y 1.98 | L 2.88 | K 3.72 | P 3.29 | S 3.26 | W 2.09 | D 3.09 | C 2.41 | V 2.04 | M 2.73 | R 2.98 | Q 2.78
Q11: Y 2.24 | A 2.26 | P 3.5 | H 2.48 | C 1.54 | T 1.55 | W 2.67 | I 1.68 | V 1.42 | S 2.34 | R 2.32 | G 2.57 | M 1.93 | E 2.66 | K 2.15 | D 3.52 | N 2.39 | L 2.83
G2: T 1.9 | Q 2.59 | P 2.81 | M 2.83 | E 3.59 | W 2.5 | H 2.36 | N 3.28 | S 2.45 | A 1.62 | C 2.56 | V 3.34 | I 1.7 | Y 2.03 | F 2.48 | L 2.08 | R 2.5 | K 3.06 | D 3.7
Y10: G 3.79 | H 3.77 | V 2.77 | I 2.44 | C 2.96 | T 4.1 | W 2.05 | E 4.55 | L 2.87 | F 2.43 | P 4.31 | D 4.3 | M 3.63 | R 4.12 | A 4.06 | S 4.16 | K 4.24 | Q 4.33
